Patent publication US20110129476A1 (MAX PLANCK GESELLSCHAFT ZUR FORDERUNG DER WISSENSCHAFTEN E V, published 2011)

Tests used:
[1] = molecular target: RACK1 (receptor for activated C kinase 1), endogenous protein of murine K46 B cells (mouse, UniProt P68040 1-317); experiment: reciprocal co-immunoprecipitation (α-RACK1; α-MZB1 5C11 Sepharose) from membrane and cytosolic fractions of K46 B cells, immunoblot
[2] = molecular target: GRP94 (Endoplasmin), endogenous protein of murine K46 B cells (mouse, UniProt P08113 22-802); experiment: formaldehyde crosslinking, α-MZB1 immunoprecipitation and mass spectrometry; co-immunoprecipitation of endogenous proteins from K46 extracts
Method: (§1) Approximately […] of K46 mature B cells were cultured until reaching the exponential growth phase, harvested and in vivo formaldehyde crosslinking was performed by adding 1% formaldehyde (final concentration) directly to the K46 cell culture. Cells were incubated for 10 min at 37° C. and 5% CO₂ and the crosslinking reaction was quenched by addition of 2.5M glycine with a final concentration of 125 mM. After crosslinking, cells were collected, washed with ice-cold PBS and frozen at −80° C. prior to lysis. […] The immunoprecipitated proteins were eluted with sample buffer and separated on a 4%-12% gradient SDS-PAGE. The gel was silver stained. The marked bands (arrow) were cut out and prepared for mass spectrometry analysis.

[3] = molecular target: T1, ERp57, endogenous protein of murine K46 B cells (mouse, UniProt P27773 25-505); experiment: as above
T1 sequence (looked up): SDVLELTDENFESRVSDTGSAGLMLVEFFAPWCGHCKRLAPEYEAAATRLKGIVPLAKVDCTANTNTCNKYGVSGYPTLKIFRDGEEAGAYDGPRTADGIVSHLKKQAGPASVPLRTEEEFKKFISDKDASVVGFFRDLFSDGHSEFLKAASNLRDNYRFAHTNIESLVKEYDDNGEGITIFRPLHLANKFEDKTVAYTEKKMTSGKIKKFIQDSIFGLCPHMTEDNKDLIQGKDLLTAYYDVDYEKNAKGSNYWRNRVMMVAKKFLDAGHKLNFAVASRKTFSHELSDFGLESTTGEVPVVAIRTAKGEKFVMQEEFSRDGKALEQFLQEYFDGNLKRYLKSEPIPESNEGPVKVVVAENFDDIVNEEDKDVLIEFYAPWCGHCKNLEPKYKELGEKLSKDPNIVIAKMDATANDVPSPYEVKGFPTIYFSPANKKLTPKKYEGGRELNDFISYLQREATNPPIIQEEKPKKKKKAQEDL
Method: as §1

[4] = molecular target: T2, ERp44, endogenous protein of murine K46 B cells (mouse, UniProt Q9D1Q6 30-406); experiment: as above
T2 sequence (looked up): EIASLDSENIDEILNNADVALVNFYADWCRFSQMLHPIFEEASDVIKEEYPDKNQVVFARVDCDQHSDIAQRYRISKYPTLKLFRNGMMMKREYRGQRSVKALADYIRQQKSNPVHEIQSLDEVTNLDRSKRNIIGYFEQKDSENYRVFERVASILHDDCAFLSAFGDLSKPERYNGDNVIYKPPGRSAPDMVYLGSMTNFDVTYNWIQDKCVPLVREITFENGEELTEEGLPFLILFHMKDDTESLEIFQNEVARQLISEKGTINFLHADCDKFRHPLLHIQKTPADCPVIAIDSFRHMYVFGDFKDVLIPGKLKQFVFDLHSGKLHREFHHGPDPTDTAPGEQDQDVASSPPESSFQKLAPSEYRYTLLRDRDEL
Method: as §1

Measured: binding result

Chain of GRP94 (Endoplasmin), endogenous protein of murine K46 B cells (P08113 22-802 limits assumed): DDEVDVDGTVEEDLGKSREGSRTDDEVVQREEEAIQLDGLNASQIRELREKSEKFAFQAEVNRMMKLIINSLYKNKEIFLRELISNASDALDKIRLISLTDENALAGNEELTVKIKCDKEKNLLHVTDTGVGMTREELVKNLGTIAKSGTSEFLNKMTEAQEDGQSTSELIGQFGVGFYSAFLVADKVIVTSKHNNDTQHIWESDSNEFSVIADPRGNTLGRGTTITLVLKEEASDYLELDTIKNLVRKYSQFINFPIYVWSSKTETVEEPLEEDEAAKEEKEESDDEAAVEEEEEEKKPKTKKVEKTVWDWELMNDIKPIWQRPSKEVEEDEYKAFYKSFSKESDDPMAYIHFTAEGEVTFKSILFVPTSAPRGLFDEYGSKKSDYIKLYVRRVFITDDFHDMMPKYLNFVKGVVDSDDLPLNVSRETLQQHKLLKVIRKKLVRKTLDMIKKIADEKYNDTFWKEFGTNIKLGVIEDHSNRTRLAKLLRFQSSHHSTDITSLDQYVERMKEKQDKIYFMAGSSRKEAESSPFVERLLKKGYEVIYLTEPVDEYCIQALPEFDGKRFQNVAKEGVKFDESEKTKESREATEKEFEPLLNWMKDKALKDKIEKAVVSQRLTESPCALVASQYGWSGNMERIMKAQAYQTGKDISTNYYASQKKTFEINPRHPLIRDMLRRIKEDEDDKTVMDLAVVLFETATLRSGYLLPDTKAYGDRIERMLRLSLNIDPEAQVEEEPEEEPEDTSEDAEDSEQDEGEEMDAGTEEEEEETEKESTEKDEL

B1: MZB1 (marginal zone B1 B cell factor 1), endogenous protein of murine K46 mature B cells (other)
chain: GDRVSLSASAPTLDDEEKYSAHMPAHLRCDACRAVAFQMGQRLAKAEAKSHTPDASGLQELSESTYTDVLDQTCSQNWQSYGVHEVNQMKRLTGPGLSKGPEPRISVMISGGPWPNRLSKTCFHYLGEFGEDQIYEAYRQGQANLEALLCGGTHGPCSQEILAQREEL
notes: Endogenous protein in K46 cell extracts (whole cell, membrane or cytosolic fraction); also called AL1
binds: all assays above
